Experiment [1] has as its target human FGFR2b protein (recombinant, coated on ELISA plates) (human) (UniProt P21802). As to the kind of experiment: ELISA, plate-coated human FGFR2b.
Experiment [2] has as its target human FGFR2c protein (recombinant, coated on ELISA plates) (human) (UniProt P21802). As to the kind of experiment: ELISA, plate-coated human FGFR2c.
The target in experiment [3] is human FGFR2b on cells (human) (UniProt P21802). Briefly: flow cytometry, human FGFR2b OE cells.
The target of experiment [4] is human FGFR2c on cells (human) (UniProt P21802). As to the kind of experiment: flow cytometry, human FGFR2c OE cells.
Chain of human FGFR2c on cells (human) (P21802 22-821): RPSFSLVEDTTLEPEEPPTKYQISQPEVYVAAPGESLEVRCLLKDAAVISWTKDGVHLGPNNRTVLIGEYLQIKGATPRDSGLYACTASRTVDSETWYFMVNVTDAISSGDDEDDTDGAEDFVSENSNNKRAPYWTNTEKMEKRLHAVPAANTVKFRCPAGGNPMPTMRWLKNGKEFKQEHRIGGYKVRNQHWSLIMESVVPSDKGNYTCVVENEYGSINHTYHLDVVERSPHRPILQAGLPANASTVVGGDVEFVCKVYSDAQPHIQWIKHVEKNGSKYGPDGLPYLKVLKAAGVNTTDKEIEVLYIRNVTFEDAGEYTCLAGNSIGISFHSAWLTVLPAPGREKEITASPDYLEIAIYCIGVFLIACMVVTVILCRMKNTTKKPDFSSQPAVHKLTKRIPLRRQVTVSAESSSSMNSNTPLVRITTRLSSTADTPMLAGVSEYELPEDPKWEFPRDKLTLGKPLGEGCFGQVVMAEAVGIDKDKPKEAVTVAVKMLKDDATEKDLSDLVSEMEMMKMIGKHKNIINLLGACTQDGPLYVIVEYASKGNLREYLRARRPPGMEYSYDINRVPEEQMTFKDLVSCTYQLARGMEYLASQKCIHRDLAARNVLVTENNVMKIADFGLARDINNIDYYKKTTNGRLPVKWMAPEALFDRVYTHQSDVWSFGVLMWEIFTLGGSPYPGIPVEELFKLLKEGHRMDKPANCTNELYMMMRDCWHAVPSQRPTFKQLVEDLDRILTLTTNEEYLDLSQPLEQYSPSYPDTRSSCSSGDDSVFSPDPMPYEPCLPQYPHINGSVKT
Experiment [5] addresses mouse FGFR2b on cells (mouse) (UniProt P21803). Briefly: flow cytometry, murine FGFR2b OE cells.
The target of experiment [6] is soluble human FGFR2b protein (his tag, in-house generated) (human) (UniProt P21802). As to the kind of experiment: SPR (Biacore 8K), antibody captured by anti-human Fc, soluble human FGFR2b-his as analyte.
Chain of soluble human FGFR2b protein (his tag, in-house generated) (human) (P21802 other isoform, or with tags, fused parts or gaps limits assumed): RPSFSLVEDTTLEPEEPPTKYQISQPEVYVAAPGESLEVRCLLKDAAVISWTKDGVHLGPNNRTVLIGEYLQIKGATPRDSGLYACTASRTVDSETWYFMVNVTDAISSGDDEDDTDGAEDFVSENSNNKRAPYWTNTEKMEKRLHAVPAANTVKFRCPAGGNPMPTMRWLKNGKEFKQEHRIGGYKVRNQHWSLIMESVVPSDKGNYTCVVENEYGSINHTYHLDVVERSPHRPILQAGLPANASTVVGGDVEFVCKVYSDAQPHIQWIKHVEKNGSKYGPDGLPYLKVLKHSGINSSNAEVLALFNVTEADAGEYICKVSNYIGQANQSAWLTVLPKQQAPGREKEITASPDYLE
Experiment [7] concerns the target human FGFR2b protein (recombinant, coated on ELISA plates) (human) (UniProt P21802). As to the kind of experiment: ELISA, plate-coated human FGFR2b. This is another data set of the same source.
Experiment [8] has as its target soluble human FGFR2b protein (his tag, in-house generated) (human) (UniProt P21802). Briefly: SPR, antibody captured by anti-human Fc, human FGFR2b.
Experiment [9] addresses human FGFR2b on cells (human) (UniProt P21802). Briefly: flow cytometry, Expi293 cells overexpressing human FGFR2b.
Experiment [10] deals with human FGFR2c on cells (human) (UniProt P21802). As to the kind of experiment: flow cytometry, Expi293 cells overexpressing human FGFR2c.
In experiment [11] the target is mouse FGFR2b on cells (mouse) (UniProt P21803). As to the kind of experiment: flow cytometry, Expi293 cells overexpressing mouse FGFR2b.

Like-named read-outs stand apart in the source and are kept apart here.

Data on 5 molecules can be found in patent US20250222125A1, “Anti-FGFR2b Antibodies, Conjugates and Methods of Use” (BeiGene, Ltd., priority 2024, published 2025).

Chain of human FGFR2b on cells (human) (P21802 other isoform, or with tags, fused parts or gaps limits assumed): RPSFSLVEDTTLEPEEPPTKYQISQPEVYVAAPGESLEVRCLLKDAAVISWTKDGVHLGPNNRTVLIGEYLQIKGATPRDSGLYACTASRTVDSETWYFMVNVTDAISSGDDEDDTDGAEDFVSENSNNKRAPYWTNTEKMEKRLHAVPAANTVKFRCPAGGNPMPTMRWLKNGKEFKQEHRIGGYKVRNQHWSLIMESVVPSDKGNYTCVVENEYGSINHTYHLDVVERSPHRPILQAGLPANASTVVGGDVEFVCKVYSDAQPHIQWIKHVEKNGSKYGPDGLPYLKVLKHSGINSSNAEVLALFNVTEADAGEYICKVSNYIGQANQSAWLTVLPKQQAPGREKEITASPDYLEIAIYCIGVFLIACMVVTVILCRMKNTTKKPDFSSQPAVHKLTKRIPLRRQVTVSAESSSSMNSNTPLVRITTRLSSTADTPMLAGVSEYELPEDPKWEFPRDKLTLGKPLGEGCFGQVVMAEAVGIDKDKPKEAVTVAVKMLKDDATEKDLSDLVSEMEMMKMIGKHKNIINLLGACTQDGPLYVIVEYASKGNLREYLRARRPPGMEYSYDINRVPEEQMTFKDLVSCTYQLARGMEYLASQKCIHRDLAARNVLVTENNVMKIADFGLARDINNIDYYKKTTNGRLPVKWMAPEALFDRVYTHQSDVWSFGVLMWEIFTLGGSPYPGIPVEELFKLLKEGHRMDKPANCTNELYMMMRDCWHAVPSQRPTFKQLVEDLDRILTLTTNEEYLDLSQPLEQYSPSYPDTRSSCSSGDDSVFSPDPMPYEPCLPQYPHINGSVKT

B1: BGA1421 (antibody, human IgG1, kappa, V domains shown)
VH: QVQLVQSGAEVKKPGSSVKVSCKASGYIFTTYNVHWVRQAPGQGLEWIGSIYPDNGDTSYNQNFKGRATITADKSTSTAYMELSSLRSEDTAVYYCARGDFAYWGQGTLVTVSS
VL: DIQMTQSPSSLSASVGDRVTITCKASQGVSNDVAWYQQKPGKAPKLLIYSASYRYTGVPSRFSGSGSGTDFTFTISSLQPEDIATYYCQQHSTTPYTFGQGTKLEIKR
As to B1, the EC50 in [1] was found to be 0.61 nM; in experiment [3], 0.48 nM; in experiment [5], 0.81 nM. The Emax (OD450) in [1] is 2.62 OD450; in [2] it was 0.09 OD450. The molecule further had an Emax (MFI) in experiment [4] of 40 MFI. Also, the Kd in experiment [6] came to 22.2 nM. This molecule returned a koff in [6] of 0.00232 s⁻¹. Further, in [6], the kon amounted to 104000 M⁻¹ s⁻¹.

B2: BGAh9239 (antibody, human IgG1, kappa, V domains shown)
VH: QVQLVQSGAEVKKPGSSVKVSCKASGYTFSIYWLNWVRQAPGQGLEWMGQIYPENADTNYSGKFKGRVTITADKSTSTAYMELSSLRSEDTAVYFCARGGFDYWGQGTLVTVSS
VL: DIQMTQSPSSLSASVGDRVTITCRASENIYSNLAWYQQKPGKAPKLLIYTATNLAEGVPSRFSGSGSGTDFTLTISSLQPEDFATYYCQHFYGILYTFGQGTRLEIKR
As to B2, the EC50 stood at 0.26 nM in experiment [1]; 0.031 nM in experiment [7]; 1.84 nM in [3]; 1.59 nM in experiment [5]; 2.4 nM in experiment [9]; 2.67 nM in experiment [11]. Moreover, the Emax (OD450) in experiment [1] stood at 3.37 OD450; in experiment [2] it was 0.07 OD450. Moreover, the Emax (A450) was determined as 2.94 A450 in experiment [7] and 0.13 A450 in experiment [2]. In addition, the Emax (MFI) in experiment [4] was 36 MFI; in [9], 3.08e+06 MFI; in [10], 23800 MFI; in [11] it was 5.1e+06 MFI. The Kd in experiment [8] turned out to be 37.3 nM; in experiment [6], 24.7 nM. For the same molecule, the koff in experiment [8] is 0.003 s⁻¹; in experiment [6], 0.00189 s⁻¹. Moreover, the association rate constant (kon) in experiment [8] stood at 80500 M⁻¹ s⁻¹; in experiment [6] it was 76600 M⁻¹ s⁻¹.

B3: BGAm1823 (antibody, V domains shown)
VH: EVQLQQSGAELVKPGASVKISCKASGYAFSIYWMNWVKQRPGKGLEWIGQIYPENGDTNYNGKFKGKATLTADKSSSTAYMHLSSLTSEDSAVYFCARGGFDYWGQGTTLTVSS
VL: NIVMTQSPASLSASVGETVTITCRASENIYSNLAWYQQKQGKSPQLLVYTATNLADGVPSRFSGSGSGTQFSLKINSLQPEDFGSYYCQHFYGILYTFGSGTRLEIK
In the case of B3, in [7], the EC50 was 0.0442 nM and the Emax (A450) came to 2.95 A450. The Emax (A450) in experiment [2] was 0.116 A450. Besides, in experiment [8], the Kd came out at 24.2 nM, the koff was found to be 0.00185 s⁻¹ and the kon was 76300 M⁻¹ s⁻¹. For the same molecule, in [9], the EC50 was 2.12 nM and the Emax (MFI) was 3.09e+06 MFI. Besides, the Emax (MFI) in experiment [10] was determined as 22600 MFI. In experiment [11], the EC50 came out at 3.37 nM and the Emax (MFI) was 5.19e+06 MFI.

B4: BGAm1371 (antibody, V domains shown)
VH: QVQLKQSGAELVKPGASVKLSCTASGFNIKDTYIHWVKQRPEQGLEWIGRIDPANGNTMFASEFQGKATITAYTSSNTAYMQLSSLTSGDTAVYYCARSKIHYDYDEGFAYWGQGTLVTVSS
VL: NIVLTQSPPSLAVSLGQRATVSCRASESVDDYGYSFLHWYQQKPGQPPKLLIYRASNLESGIPARFSGSGSRTDFTLTINPVETDDVATYYCQQSNQNPRTFGGGTKLEIK
Consider B4, for which the EC50 in experiment [1] was found to be 0.19 nM; in experiment [7] it was 0.0309 nM; in experiment [3] it was 1.25 nM; in experiment [5], 1.78 nM; in experiment [9] it was 1.5 nM; in [11] it was 3.5 nM. The Emax (OD450) was found to be 3.35 OD450 in experiment [1] and 0.07 OD450 in experiment [2]. The Emax (A450) was 3.01 A450 in experiment [7] and 0.204 A450 in experiment [2]. In addition, the Emax (MFI) was found to be 33 MFI in experiment [4], 3.05e+06 MFI in [9], 23100 MFI in experiment [10] and 4.98e+06 MFI in [11]. The molecule further gave a Kd in [8] of 16.3 nM. Moreover, in experiment [8], the koff was 0.00119 s⁻¹. For the same molecule, the kon in experiment [8] amounted to 72900 M⁻¹ s⁻¹.

B5: BGAh9179 (antibody, human IgG1, kappa, V domains shown)
VH: QVQLVQSGAEVKKPGASVKVSCKASGYTITDTYIHWVRQAPGQGLEWMGRIDPAEGNTMFASEFQGRVTMTADTSTSTVYMELSSLRSEDTAVYYCARSKIHYDYDEGFAYWGQGTLVTVSS
VL: DIVLTQSPDSLAVSLGERATINCRASESVDDYGYSFLHWYQQKPGQPPKLLIYRASNLESGVPDRFSGSGSGTDFTLTISSLQAEDVAVYYCQQSNQNPRTFGGGTKVEIKR
As to B5, the EC50 amounted to 0.0518 nM in [7], 3.29 nM in [9] and 4.25 nM in [11]. The Emax (A450) turned out to be 2.99 A450 in [7] and 0.086 A450 in experiment [2]. The Kd was found to be 21.8 nM in experiment [8] and 13.9 nM in [6]. For the same molecule, the results for the koff in [8] and in [6] were 0.00178 s⁻¹ and 0.00112 s⁻¹, respectively. In addition, the kon is 81600 M⁻¹ s⁻¹ in experiment [8] and 80600 M⁻¹ s⁻¹ in [6]. Further, the Emax (MFI) is 2.98e+06 MFI in experiment [9], 21700 MFI in experiment [10] and 5.15e+06 MFI in experiment [11].
